Drawing on US20200172617A1, this text covers Kd for 1 molecule.

By Kd is commonly meant the concentration at which binding is half-saturated.

The target of one assay is soluble LAG-3 (human) (UniProt P18627). As to the kind of experiment: population PK/PD target-mediated drug disposition model (quasi-equilibrium) fitted to antibody and total soluble LAG-3 concentrations in patient serum; model estimate.
For assay [1], the target named is LAG-3 (as used in the Biacore assay) (UniProt P18627). Description: Biacore (SPR); format not described. Background: SPR reads the build-up and loss of mass on a sensor chip optically.
The target of assay [2] is LAG-3 (in the in vitro cell-based assays) (UniProt P18627). Description: in vitro cell-based assays; format not described.

B1: LAG525 (antibody, INN chains, looked up, V domains shown)
VH: QVQLVQSGAEVKKPGASVKVSCKASGFTLTNYGMNWVRQARGQRLEWIGWINTDTGEPTYADDFKGRFVFSLDTSVSTAYLQISSLKAEDTAVYYCARNPPYYYGTNNAEAMDYWGQGTTVTVSS
VL: DIQMTQSPSSLSASVGDRVTITCSSSQDISNYLNWYLQKPGQSPQLLIYYTSTLHLGVPSRFSGSGSGTEFTLTISSLQPDDFATYYCQQYYNLPWTFGQGTKVEIK
As to B1, the Kd in the assay with soluble LAG-3 (human) is 1.5 nM; in assay [1], 0.1 nM; in assay [2], 1.9 to 2.3 nM.
